Test results from patent US20230340151A1 (Pfizer, published 2023).
Substitutions are numbered along the chain they refer to.

T1: Human CD3 epsilon-delta (human)
T1 construct: Single-chain epsilon-linker-delta with His6; also called huCD3
T1 chain: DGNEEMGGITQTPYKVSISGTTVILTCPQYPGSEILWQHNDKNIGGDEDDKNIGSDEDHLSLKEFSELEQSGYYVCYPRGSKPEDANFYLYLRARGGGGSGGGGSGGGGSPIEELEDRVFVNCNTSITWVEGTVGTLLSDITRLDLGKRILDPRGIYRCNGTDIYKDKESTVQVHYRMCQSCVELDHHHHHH

B1: GUCY2C-0105 (bispecific antibody)
chain 1: DIVMTQSPSSLAVSVGEKVTVSCKSSQSLLYSSNQKNYLAWYQQRPGQSPKLLIYWASTRESGVPDRFTGSGSGTDFTLSISSVKAEDLAVYYCQQYYSYPTFGGGTKLEIKGGGSGGGGEVQLVESGGGLVQPGGSLRLSCAASGFTFSDYYMTWVRQAPGKGLEWVAFIRNRARGYTSDHNPSVKGRFTISRDNAKNSLYLQMNSLRAEDTAVYYCARDRPSYYVLDYWGQGTTVTVSSGCPPCPAPEAAGAPSVFLFPPKPKDTLMISRTPEVTCVVVDVSHEDPEVKFNWYVDGVEVHNAKTKPREEQYNSTYRVVSVLTVLHQDWLNGKEYKCKVSNKALPAPIEKTISKAKGQPREPQVCTLPPSREEMTKNQVSLWCLVKGFYPSDIAVEWESNGQPENNYKTTPPVLDSDGSFFLYSKLTVDKSRWQQGNVFSCSVMHEALHNHYTQKSLSLSPG
chain 2: DIVMTQSPDSLAVSLGERATINCKSSQSLFNVRSRKNYLAWYQQKPGQPPKLLISWASTRESGVPDRFSGSGSGTDFTLTISSLQAEDVAVYYCKQSYDLFTFGSGTKLEIKGGGSGGGGEVQLQQSGPELVKPGASVKISCKASGYSFTDYIMLWVKQSHGKSLEWIGNSNPYYGSTSYNLKFKGKATLTVDKSSSTAYMHLNSLTSEDSAVYYCARSGYYGSSPYWYFDVWGAGTTVTVSSGCPPCPAPEAAGAPSVFLFPPKPKDTLMISRTPEVTCVVVDVSHEDPEVKFNWYVDGVEVHNAKTKPREEQYNSTYRVVSVLTVLHQDWLNGKEYKCKVSNKALPAPIEKTISKAKGQPREPQVYTLPPCREEMTKNQVSLSCAVKGFYPSDIAVEWESNGQPENNYKTTPPVLDSDGSFFLVSKLTVDKSRWQQGNVFSCSVMHEALHNHYTQKSLSLSPG
notes: chimeric CD3-GUCY2c diabody-Fc, CD3-0004
B2: GUCY2C-0078 (bispecific antibody)
chain 1: DIVLTQSPASLAVSLGQRATISCRAGESVDNFDISFMNWFQQKPGQPPKLLIYAASNQGSGVPARFSGSGSGTDFSLNIHPMEEDDTAMYFCQQSKEVPYTFGGGTKLEIKGGGSGGGGEVQLVESGGGLVQPGGSLRLSCAASGFTFSDYYMTWVRQAPGKGLEWVAFIRNRARGYTSDHNPSVKGRFTISRDNAKNSLYLQMNSLRAEDTAVYYCARDRPSYYVLDYWGQGTTVTVSSGCPPCPAPEAAGAPSVFLFPPKPKDTLMISRTPEVTCVVVDVSHEDPEVKFNWYVDGVEVHNAKTKPREEQYNSTYRVVSVLTVLHQDWLNGKEYKCKVSNKALPAPIEKTISKAKGQPREPQVCTLPPSREEMTKNQVSLWCLVKGFYPSDIAVEWESNGQPENNYKTTPPVLDSDGSFFLYSKLTVDKSRWQQGNVFSCSVMHEALHNHYTQKSLSLSPG
chain 2: DIVMTQSPDSLAVSLGERATINCKSSQSLFNVRSRKNYLAWYQQKPGQPPKLLISWASTRESGVPDRFSGSGSGTDFTLTISSLQAEDVAVYYCKQSYDLFTFGSGTKLEIKGGGSGGGGEVQLQQSGAELARPGASVKLSCKASGYTFTKYWMQWIKQRPGQGLEWIGAIYPGDGFTTYTQKFKGKATLTADKSSNTAYMQLSSLASEDSAVYYCARRNYGRTYGGDYWGQGTSVTVSSGCPPCPAPEAAGAPSVFLFPPKPKDTLMISRTPEVTCVVVDVSHEDPEVKFNWYVDGVEVHNAKTKPREEQYNSTYRVVSVLTVLHQDWLNGKEYKCKVSNKALPAPIEKTISKAKGQPREPQVYTLPPCREEMTKNQVSLSCAVKGFYPSDIAVEWESNGQPENNYKTTPPVLDSDGSFFLVSKLTVDKSRWQQGNVFSCSVMHEALHNHYTQKSLSLSPG
B3: GUCY2C-1705 (antibody, human IgG1, V domains shown)
VH: EVQLVESGGGLVQPGGSLRLSCAASGFTFSSYWMHWVRQAPGKGLEWIGEIKPSRGFTNVHEKFKDRFTISVDKAKNSAYLQMNSLRAEDTAVYYCTRTITTTEGYWFFDVWGQGTLVTVSS
VL: DIQLTQSPSSLSASVGDRVTITCRASESVDYYGSSLMQWYQQKPGKAPKLLIYAASKLASGVPSRFSGSGSGTDFTLTISSLQPEDFATYYCQQTRKAYTFGQGTKLEIK
notes: full human IgG1/kappa
B4: GUCY2C-1640 (antibody, human IgG1, kappa, V domains shown)
VH: B3 VH with R55N, G56E, F57L
VL: DIQLTQSPSSLSASVGDRVTITCRASESVDYYGSSLLQWYQQKPGKAPKLLIYAASKLASGVPSRFSGSGSGTDFTLTISSLQPEDFATYYCQQTRKAYTFGQGTKLEIKR
B5: GUCY2C-1710 (antibody, human IgG1, V domains shown)
VH: B3 VH with F57W, T97A
VL: B3 VL with G33R, S34H
notes: full human IgG1/kappa
B6: GUCY2C-1696 (antibody, human IgG1, V domains shown)
VH: B3 VH with S31T, Y32R, R55N, G56K, F57L, T97A, F109L, D110S, V111D
VL: B3 VL with S34H
notes: full human IgG1/kappa
B7: GUCY2C-1713 (antibody, human IgG1, V domains shown)
VH: B3 VH with S31H, Y32T, E104Q
VL: B3 VL with D30N, Y31W
notes: full human IgG1/kappa
B8: GUCY2C-1706 (antibody, human IgG1, V domains shown)
VH: B3 VH with Y32T, R55N, G56E, F57L
VL: B3 VL
notes: full human IgG1/kappa
B9: GUCY2C-1714 (antibody, human IgG1, V domains shown)
VH: B3 VH with S31H, Y32T, R55T, G56K, F57Y, T97A, T101F, T103R
VL: B3 VL with D30N, Y31W
notes: full human IgG1/kappa
B10: GUCY2C-1703 (antibody, human IgG1, V domains shown)
VH: B3 VH with R55N, G56R, F57W, T58N
VL: B3 VL
notes: full human IgG1/kappa
B11: GUCY2C-1708 (antibody, human IgG1, V domains shown)
VH: B3 VH with S31R, Y32P, R55T, F57W, E104T
VL: B3 VL with G33K, S34H
notes: full human IgG1/kappa

Columns and labels:
[1] = target: T2, Purified human GUCY2c ECD (recombinant, construct not stated) (human, UniProt P25092 24-430); assay: direct ELISA, coated GUCY2c ECD
T2 construct: also called recombinant human GUCY2c; recombinant GUCY2c protein

Human CD3 epsilon-delta = target: T1, Human CD3 epsilon-delta; assay: direct ELISA, coated CD3 epsilon-delta
Method: Proteins were screened for binding to recombinant human, cyno and mouse proteins by ELISA. Purified human, cynomolgus, murine GUCY2c ECD or human CD3 epsilon-delta proteins were coated on Nunc-Maxisorb 384-well ELISA plates at 1 μg/ml in 20 μl in PBS-CMF (calcium and magnesium free) at 4 C. Plates were washed 3x with PBS+0.05% TWEEN20 and blocked with PBS+3% milk for 1 hr, shaking at RT. Blocking solution was removed and samples serially diluted in block were added and incubated for 1 hr shaking at RT. Plates were washed 3x as before and a secondary antibody was added (goat anti-hu IgG Fc-HRP—Southern Biotech L2047-05, 1:5000;
goat anti-mouse IgG Fc-HRP—Thermo Scientific, diluted 1:4,000; or mouse anti-penta-HIS-HRP, Qiagen, 1:1000), followed by shaking for 1 hr at RT. Plates were washed as before and signal was developed using TMB, the reaction stopped with H2SO4 and the absorbance read at 450 nm on an Envision plate reader (Perkin Elmer). An alternative detection method was also periodically employed in place of TMB/H2SO4. […] Time-resolved fluorescence was then measured at 320 and 615 nm using an EnVision® plate reader (EnVision® Multilabel Plate Reader, Perkin Elmer) following the manufacturer's methods.

[2] = target: Human GUCY2c on tumor cells (T84, HT55) (human, UniProt P25092 24-1073); assay: cell-based or functional assay
Human GUCY2C ECD-muIgG2a = target: T3, Human GUCY2C ECD-muIgG2a (human); assay: sandwich ELISA: CD3 epsilon-delta coated, GUCY2c ECD-mIgG2a Fc in solution
T3 construct: also called human GUCY2c ECD-mouse IgG2a Fc fusion protein; huGUCY2c-mIgG2a

Human GUCY2C ECD Cleaved = target: T4, Human GUCY2C ECD Cleaved (human, UniProt P25092 24-430); assay: SPR, human IgG1 against human GUCY2c ECD
T4 construct: also called human GUCY2c extracellular domain protein (ECD)
T4 sequence (P25092 other isoform, or with tags, fused parts or gaps): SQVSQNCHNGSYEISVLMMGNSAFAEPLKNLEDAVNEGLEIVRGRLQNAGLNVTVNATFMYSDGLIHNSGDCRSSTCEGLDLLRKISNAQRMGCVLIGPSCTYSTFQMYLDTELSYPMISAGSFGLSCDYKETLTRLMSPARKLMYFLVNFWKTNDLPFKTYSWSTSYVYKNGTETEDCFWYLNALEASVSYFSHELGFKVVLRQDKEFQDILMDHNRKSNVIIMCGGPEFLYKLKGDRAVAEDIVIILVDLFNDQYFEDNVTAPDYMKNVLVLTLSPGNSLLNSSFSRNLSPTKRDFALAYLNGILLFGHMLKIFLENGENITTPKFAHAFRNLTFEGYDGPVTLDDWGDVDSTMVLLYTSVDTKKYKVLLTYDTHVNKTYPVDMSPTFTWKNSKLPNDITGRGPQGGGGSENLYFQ

T3 sequence (chain, as listed by the source limits assumed): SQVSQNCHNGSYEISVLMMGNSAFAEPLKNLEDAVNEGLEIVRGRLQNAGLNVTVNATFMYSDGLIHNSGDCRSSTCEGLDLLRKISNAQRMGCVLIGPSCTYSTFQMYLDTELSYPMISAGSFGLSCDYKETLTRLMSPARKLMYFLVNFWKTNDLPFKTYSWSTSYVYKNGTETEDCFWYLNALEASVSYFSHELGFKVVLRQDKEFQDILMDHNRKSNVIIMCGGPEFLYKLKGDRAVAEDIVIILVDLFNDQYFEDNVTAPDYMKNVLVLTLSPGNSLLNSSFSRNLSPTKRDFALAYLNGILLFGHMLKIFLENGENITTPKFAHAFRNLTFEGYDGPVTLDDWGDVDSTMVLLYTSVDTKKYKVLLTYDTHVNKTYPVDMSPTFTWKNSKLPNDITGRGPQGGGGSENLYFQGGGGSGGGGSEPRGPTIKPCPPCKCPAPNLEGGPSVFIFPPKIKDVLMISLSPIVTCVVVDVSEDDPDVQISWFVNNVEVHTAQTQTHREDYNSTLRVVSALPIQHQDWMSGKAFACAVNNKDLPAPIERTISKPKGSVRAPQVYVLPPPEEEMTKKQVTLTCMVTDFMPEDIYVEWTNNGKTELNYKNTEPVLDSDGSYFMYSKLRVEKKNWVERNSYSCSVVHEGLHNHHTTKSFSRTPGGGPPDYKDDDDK
T2 sequence (P25092 24-430 limits assumed): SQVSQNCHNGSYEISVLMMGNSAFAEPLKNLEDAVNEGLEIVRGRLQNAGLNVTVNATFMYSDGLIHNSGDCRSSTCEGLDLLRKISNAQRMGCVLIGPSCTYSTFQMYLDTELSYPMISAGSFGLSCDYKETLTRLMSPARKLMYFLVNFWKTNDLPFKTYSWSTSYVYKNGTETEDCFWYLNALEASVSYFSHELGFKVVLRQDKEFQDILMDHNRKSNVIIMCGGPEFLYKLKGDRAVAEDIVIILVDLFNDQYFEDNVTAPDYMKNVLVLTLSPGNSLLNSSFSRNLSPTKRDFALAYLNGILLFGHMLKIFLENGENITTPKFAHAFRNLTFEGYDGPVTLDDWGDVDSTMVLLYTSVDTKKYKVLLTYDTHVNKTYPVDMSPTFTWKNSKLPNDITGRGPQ
Human GUCY2c on tumor cells (T84, HT55), sequence (P25092 24-1073 limits assumed): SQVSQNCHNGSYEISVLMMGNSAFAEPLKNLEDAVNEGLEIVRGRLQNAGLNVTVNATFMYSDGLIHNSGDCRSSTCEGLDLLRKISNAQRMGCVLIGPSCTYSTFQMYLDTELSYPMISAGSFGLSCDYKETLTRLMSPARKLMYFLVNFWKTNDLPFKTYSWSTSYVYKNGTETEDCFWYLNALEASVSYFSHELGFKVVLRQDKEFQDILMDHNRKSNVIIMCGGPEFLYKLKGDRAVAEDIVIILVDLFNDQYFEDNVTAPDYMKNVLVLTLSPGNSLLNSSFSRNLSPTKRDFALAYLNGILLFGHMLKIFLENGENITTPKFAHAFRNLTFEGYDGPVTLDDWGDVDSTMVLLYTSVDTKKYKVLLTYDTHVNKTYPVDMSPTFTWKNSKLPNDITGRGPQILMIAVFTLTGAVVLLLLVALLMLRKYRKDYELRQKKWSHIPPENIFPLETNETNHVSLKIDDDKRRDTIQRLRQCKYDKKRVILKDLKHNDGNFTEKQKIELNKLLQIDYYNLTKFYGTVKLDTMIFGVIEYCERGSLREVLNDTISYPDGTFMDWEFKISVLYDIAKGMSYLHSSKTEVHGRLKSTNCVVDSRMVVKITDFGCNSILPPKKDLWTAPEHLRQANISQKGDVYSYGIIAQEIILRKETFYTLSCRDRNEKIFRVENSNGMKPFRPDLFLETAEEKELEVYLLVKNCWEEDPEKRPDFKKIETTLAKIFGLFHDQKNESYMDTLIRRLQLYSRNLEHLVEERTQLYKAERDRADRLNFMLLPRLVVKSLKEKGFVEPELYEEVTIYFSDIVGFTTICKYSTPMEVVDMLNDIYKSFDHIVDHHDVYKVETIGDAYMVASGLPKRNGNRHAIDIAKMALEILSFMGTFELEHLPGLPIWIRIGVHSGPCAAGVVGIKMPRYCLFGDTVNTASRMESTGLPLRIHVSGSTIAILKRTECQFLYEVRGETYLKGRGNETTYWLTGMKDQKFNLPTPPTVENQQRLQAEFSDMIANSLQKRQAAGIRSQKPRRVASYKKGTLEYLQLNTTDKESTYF

Row | Binder | EC50 [1] [nM] | EC50 (Human CD3 epsilon-delta) [nM] | T84 tumor cell EC50 (T cell cytotoxicity, E:T 10:1) [2] [nM] | EC50 (Human GUCY2C ECD-muIgG2a) [nM] | Kd (Human GUCY2C ECD Cleaved) [nM] | koff (Human GUCY2C ECD Cleaved) [s⁻¹] | kon (Human GUCY2C ECD Cleaved) [M⁻¹ s⁻¹]
1 | B1 | 79.8 | 0.355 | 7.51 | 5.04 | – | – | –
2 | B2 | 23.5 | 1.45 | 7.8 | 9.68 | – | – | –
3 | B3 | – | – | – | – | 6.25 | 0.00149 | 239000
4 | B4 | – | – | – | – | 13.9 | 0.00271 | 195000
5 | B5 | – | – | – | – | 5.94 | 0.00147 | 248000
6 | B6 | – | – | – | – | 12.4 | 0.00179 | 144000
7 | B7 | – | – | – | – | 6.71 | 0.00108 | 161000
8 | B8 | – | – | – | – | 9.75 | 0.00193 | 198000
9 | B9 | – | – | – | – | 10.3 | 0.00124 | 121000
10 | B10 | – | – | – | – | 10.3 | 0.00214 | 210000
11 | B11 | – | – | – | – | 9.44 | 0.00132 | 140000
